Biological target: T1, NPVEDS peptide (LRC1 epitope, residues 286-291 of ASPH) (human)
T1 peptide: NPVEDS
Assay: peptide inhibition (data not shown)

binding result: binds
B1: LRC1 monoclonal antibody (antibody, V domains shown)
VH: EVQLVESGGGLVKPGGSLKFSCAASGFTFSRYAMPWVRQTPEKRLEWVATISSGGSYTYYPDSVKGRLTISRDNAKNTLYLQMSSLRSEDTAMYYCARQGNYYGSSHLYYAMDYWGQGTSVTVSS
VL: QLVLTQSSSASFSLGASAKLTCTLNSQHRAYTIEWYQQQPLKPPKYVMELKKDGSHSTGDGIPDRFSGSSSGADRYLSISNIQPEDEAIYICGVGDTIKEQFVYVFGGGTKVTVL
notes: also called LRC1 mAb; LRC1 antibody
